The DeepSol protein solubility set

Assay: soluble on expression in E. coli; label from the status in PepcDB or PDB records

| Sequence | soluble on expression in E. coli |
| --- | --- |
| MAHHHHHHSLTTVGLELINVSSSWDEGIVELFEKIKRENKANGQLTGDDGLFFTNLYVTPVLKNINLRLEEGMMLAVAGSTGSGKSSLLMMILGELVPSEGKIRHSGRISYSPQTSWIMPGTIRDNILFGLTYDEFRYTSIIRACQLEEDLDLLPEKDKTAIAEGGVTLSGGQRARICLARAVYKDADLYLLDAPFTHLDIATEKEIFDKCVCKLIASKTRVVVTSKLEHLKRADRILLLHNGDCYFYGTFSELQAQRPDFSSLLLGLGSYDNISAERRSSILTETLRRVSVDETAGFRGEG | soluble |
| GPGSMRVDVEAVFEKIRPALEVAEVGAWSKTDITTFMSLVSGFCDIQRQQLRARRGKRRDGHDCEQNVDKEGGCEDGCGVRGEDGDKEDEASLEADSVVVLEIRRSLTKLRHYLQKRIPYGSISEPVVPPAPTSPQEGENSCGGRGAYKALQSSKPVEPPVCAVDAFLYLEEDIDALADQGHISREYCRSCGSVDIGLCQFITHSFSLEQLIFLSCFLLPSFGDTSYCLTSDNVWRPRHKNCHTVAAAFSCEHVVEVGSRLGIVPMSCYFASEQQRLLNTRRVTAIELDKELVALQQEVFQKFARGPTAAHLNLVHSDCFEGEGLEALRSADIIILHNIFEYFTASAEEHLRSWKRLRAAVVRSGQLLVCCPPLQETLAAFSEDCVRKVFINEQDKVDFVHVHQSNSNAGRISRKRCRQPPQEHSFTLDQWWRSWVKEIDVEHIRRSFLTAQRFCEEDHPCDSSYGDADDELVKELKDMRVYMVQ | not soluble |
| MSSPHSLRQQYQSLIASGSIEADPAQARAVQAFTLLNETLDGYKPPKKQGFFGRLFGGGDAGQAPPQGLYIHGEVGRGKTMLMDLFFDASPIALKRRSHFHEFMAETHDRINGFRQAIKRGDIPDADVMELTAASILDEAWLLCFDEFHVTDIADAMILGRLFTKLFELGTVVVATSNVAPDDLYKGGLNRSLFMPFIGQVKRHMRVIRLDARTDYRLEKFAGMKVWLAPDDAEATATIDRAWHRITGTTKGEPRDISIKGRILHVPQADHHVARFSFADLCQKPLGASDYLRLAHEYHTLMIDHVPVMDYADRNAAKRFIALIDTLYDNSVKLMASAAAEPARLYRATEGFEALEFNRTVSRLTEMGSESYLALPHGRRDSTATGETTGLVETMAGDPLEHHHHHH | not soluble |
| MLRPPMTKLVISNRESHRECEQVLQIGECAIVRSSSGEPWQLLNNGNSDSIDYALLQDILYEGYRLSTIYNIKSHTKSMKRLRRKLASIFSNSNFLLPLSKDGSSSSSQPHFYLSPSNSSLFDARKSSRSRGAVIKSPSTINIEKNRHSSNSGENQKMRLNLSMSTGNLCRAGVVRTPYPTSKQLHFDNDDGDEEDDTDDEGEADLVSIKTRSGRRNVLKSPPPPERIPSSMGASDAEEIDIKSHMKPLSVKIPANIFKTPTLDIPVDDDAEIDADVFPLPPPTPVNLKHGLFSIPSGRNSESARSRQTKRSPFGSVTSRTSSLDRRMSLSCLEDTSNYQKTQYLVFPLRTSSKKPYLLKFPEDMQEEDEKHNGSVWGSDTSLEEEIKV | not soluble |
| MAHHHHHHMSVDFTSKAVDLLKRATTLDEAKEYEEAYRWYMDSIEVFMTAIKYENKNPTKKEMLKNKVRQVMERAKMIKEYLDGSKEGDSNVGNTGSTAQKTASASKKAKEEEEDKQRMRNALGGAIVRVKPNVNWSQIAGLEGAKEALKEAVILPVRFPQLFTGNRKPWKGILMYGPPGTGKSFLAKAVATEADGTFLSVSSADLMSRWLGDSEKLVRNLFEMAREAWKTDGKPAIIFIDEIDSMCSSRTDGENDALRRIKTEFLVQMQGVGHEDDGVLVLGATNIPWSLDSAVRRRFERRIYIPLPDVQARYQMFKIHIGDTPHTLTEKDWYELARMTDKYSGSDINIVVRNAMMECIRSVQVATHFKRVTGPDLKDPTRMTNNRLVPCSPGDPEGFAMTAQEITEPGLLMPLPVTMQDFVKALRTARPSVADDDITQHLKFTEEFGQEG | not soluble |
| MLKKMGEAVARVARKVNETVESGSDTLDLAECKLVSFPIGIYKVLRNVSGQIHLITLANNELKSLTSKFMTTFSQLRELHLEGNFLHRLPSEVSALQHLKAIDLSRNQFQDFPEQLTALPALETINLEENEIVDVPVEKLAAMPALRSINLRFNPLNAEVRVIAPPLIKFDMLMSPEGARAPLP | not soluble |
| GPGSMHDLPEGFEFMEHKVVNKDIHAPHENLETLRLTLTRQDEFLLREEPVKCVTVTGTNGEYGIYPGHAYKIVQLNPSPLTVEYTDGTTKKYFVSGGFAHINNEGSCDVNTVECTLLDDLDLAIAEKELAAQQAALGSAKDDKAKSVVEIRISVIEAVIAALKHH | soluble |
| MLLTGKLYKEEKQKFYDAQNGKCLICQRELNPDVQANHLDHDHELNGPKAGKVRGLLCNLCDAAEGQMKHKFNRSGLKGQGVDYLEWLENLLTYLKSDYTQNNIHPNFVGDKSKEFSRLGKEEMMAEMLQRGFEYNESDTKTQLIASFKKQLRKSLK | soluble |
| MRKPRITYLDVWANDERIGTLEKGAMYRFAYDNPNSSLLGLHYQDRSKVYISNNMPHIFAQYFPEGFLDAHITSKYAFHDAPFEDNEMLRLAILCRETLGRIHVRCNDPLFNEWIDGLEMKNPRILTERDLLGINARQVFQQYMAEIFHHGRFVSVSGIQQKMSLDAIRRNTKQTASYIAKGFDASEYPCLAANEFLCMQTIKQAGIAVAQTSLSEDSSVLLVRRFDVSEQGYFLGMEDFTSLRQYSVEDKYKGSYAAIAQIIRQISGRPDEDLIHFFNQLAASCILKNGDAHLKNFSVLYHDEYDVRLAPVYDVLDTSIYRVGTQGIFDAYDDTLALNLTNHGKKTYPSKNTLLDFAEKYCDLGREDASFMIDTIVQAKEQVLVKYSDVLRENEWLAQKWHFIPDENEEGLPFTFR | not soluble |
| MADRKSDEGEDEYQHKEQMVTNRTSSFQPKSTEDSISKLAKMRAADRREEFMEERASFSAVKRGYQAGDDEEDDFTAEEEPPAKKPLTVAERLMAAMGHKAGEGLGKHGQGISEPIASSTQRGRTGLGHNAGKATARDFNEVWDETTEEKTVVERVEWMTDIEEEKRAEICEQLKDDKWMVIGKEKRTIDDETKFCSQQSITEMIEAKNVFDLMSDKDLREARTRANPYETIGSAFFQNRAAMKTANMDKIYDWILSRENTENDRFLLKNPLQESQTAENVDRSEDLFYFADVCAGPGGFSEYMLWRKGFYNAKGFGFTLAGKDDFKLFKFTASSQYFFETFYGTKDNGDVMDPVNIDSLEAHISRGTSGLGVHLMMADGGFSVEGQENIQEILSKRLYLCQLLVSLCIVREGGNFFCKLFDIFTPFSVGLIYLMRVCYQSVSLHKPHTSRPANSERYITCKGLRKEFANVVKEYLKRVNRKLDELKNKKSHDDVTDLMPLDVIEADQIFMDEIIRHNEFLANRQTLYLRKYQSFAKNQGQFDKDQGNLRDECLKYWQVPNKQRPRGGDRGNRHDNMQRLNPLQVYGKYCKKVCGESEIGNTFPDFSLNCLDAPLPNIPYEEYRFVPLASSGSPNLLIAAGDSAFIFRSGRFESISADHIRIPENTILLVDWAEEVVRGDGNRIKISSEPQVVRIIDAAVLFGDDVSNLPYEERMKAAEKFVAALKQTNRKVKKGWGHRAEMIKPHLKICAKTYSLAELDEFRSNLEKLEHNRELAVLFTEGEFTFRCQALRFTRIIKQEWRMGWSKSQQKPYAHSQEHQNAGSIPVELWAEKSIYSSFWDSVICLNKDKKKLMEAMEHTKGKCPIPSSIWSWKACILNLFPFFSVRTPYGPEKILNYPEPFEGKPTIAALKAQIENTDLIVKRVRN | not soluble |
| MGHHHHHHSHMHGSPVEVKIQSRSSPPTMPPLPPINPGGPRPVSFTPTALSNGINHSPPTLNGAPSPPQRFSNGPASSTSSALTNQQLPATCGARQLSKLKRFLTTLQQFGNDISPEIGEKVRTLVLALVNSTVTIEEFHCKLQEATNFPLRPFVIPFLKANLPLLQRELLHCARAAKQTPSQYLAQHEHLLLNTSIASPADSSELLMEVHGNGKRPSPESCIIHLKSMGVASRHEYFSGTLQMPAHPVRNSTLENLWVDCSRSLRSTVLPFP | not soluble |
| MSEPLLIARTPDTELFLLPGMANRHGLITGATGTGKTVTLQKLAESLSEIGVPVFMADVKGDLTGVAQAGTVSEKLLARLKNIGVNDWQPHANPVVVWDIFGEKGHPVRATVSDLGPLLLARLLNLNDVQSGVLNIIFRIADDQGLLLLDFKDLRAITQYIGDNAKSFQNQYGNISSASVGAIQRGLLSLEQQGAAHFFGEPMLDIKDWMRTDANGKGVINILSAEKLYQMPKLYAASLLWMLSELYEQLPEAGDLEKPKLVFFFDEAHLLFNDAPQVLLDKIEQVIRLIRSKGVGVWFVSQNPSDIPDNVLGQLGNRVQHALRAFTPKDQKAVKAAAQTMRANPAFDTEKAIQELGTGEALISFLDAKGSPSVVERAMVIAPCSRMGPVTEDERNGLINHSPVYGKYEDEVDRESAYEMLQKGFQASTEQQNNPPAKGKEVAVDDGILGGLKDILFGTTGPRGGKKDGVVQTMAKSAARQVTNQIVRGMLGSLLGGRRR | soluble |
| MSLAPRPRILICEDDPDIARLLNLMLEKGGFDSDMVHSAAQALEQVARRPYAAMTVDLNLPDQDGVSLIRALRRDSRTRDLAIVVVSANAREGELEFNSQPLAVSTWLEKPIDENLLILSLHRAIDNMAEGKEGYLTITTDPNSSSVDKLAAALEHHHHHH | soluble |
| MSATRHRSDGHEEIVALDALPLSAAIRRRELSCREVMQAYLAQIERFNPRVNAIVSLQAESRLLTQADERDRQLARGEWLGWMHGMPQAIKDLAATSGIPTTLGSPLFAGQVPEHDAIVVERVKSSGAIVIGKTNVPEFGLGSQTYNPLFGTTRNAYDPARIAGGSSGGAAVALALRMLPVADGSDMMGSLRNPAAYNNVYGFRPSQGRVPHGPQAELFVQQLATEGPMGRSVADLARLLATQAGYDPRCPLSLRDDPRRFADDLGRDFRGARLGWLGDYAGYLPMEEGVLELCEAALGDFAELGCDVEACLPDYPLERLWRTWLVHRQWLVQGSLGELYADPARRVRLKPEAQWEVESGLGLGAAEVYRASLDRSDWYRALARLFERYDFLLLPSAQVFPFDAETAWPRQVAGRPMDTYHRWMEVVIGPTLAGLPAISVPIGFGAAGLPMGLQIIGPAQADLAVLQLAHAHEGLTRWVSRRPPAMLEAPGGI | not soluble |
| SLRPIPYLPNMIGLITGRASAAERDVTTVASARWPAARFAVRNVAVQGPNAVGQIVEALRELDRDPDVDVIVLARGGGSVEDLLPFSDETLCRAIAACRTPVVSAVGHEPDNPLCDLVVDLRAATPTDAAKKVVPDTAAEQRLIDDLRRRSAQALRNWVSREQRAVAQLRSRPVLADPMTMVSVRAEEVHRARSTLRRNLTLMVAAETERIGHLAARLATLGPAATLARGYAIVQTVAQTGPEGGSEPQVLRSVHDAPEGTKLRVRVADGALAAVSEGQTNGL | soluble |
| MAHHHHHHMTELVPEAEVTFNCGSPSFPYVRVYRCFKTTNSGMLYRLEDDKGRWAFYNDTPLTVFNVYVKFNADSVVTSDTDVALEMTQGEWDYWATTVVLPGHTQRFVEGTISSFLLNFASEGELAKDVTFVNGTPTVGYDRVYRCFKQNANGMLFRLVKVERPGNECVWNFYNDSRELSVEVELTLIEKDSAKPLGDTQVIPPPDGVGVALYKIVVPPLKTVPFLRGHPRFSKQSYVAKSMYDENMLDASEITFENGQPDRAVIDYPRTKVFRGFNNNGNGLAFLLVDPEEKKWAFYNDTTNYNVTATVRFAAGSVYKAAANTRVEVDPAVEGGTVCTITVMPLATELFITEGNPEQYQISLSAECSTGPKPEENPDYQNGQPDTKVMLRWEKVYRCFKNRGNGLLFRLVGDNDRRWGFYNDTTDFIFTVTVSFENGETVKTLGNTSVSEDPELGKVFTLEVAPLSTEVFVFGDLSGYKTRFAARSVRCA | not soluble |
| MRSAVTFFTFFLDKAEPISTRDTSSESIIPEQEKRRDDMRAVVLVPFLKQQRENRDAASAPAAPGRSVEAKLEEAKGLALAIDLEVTQGLVVPVNQPRPATLFGTGKIEEIGHLLDETNSGLVIVDHPLTPVQQRNLESSGTPRLSTAPVAAALEHHHHHH | not soluble |
